Experimental data: patent US10246721B2, “Sugar transporters” (CARNEGIE INSTITUTION OF WASHINGTON, priority 2009, dated 2019)

B1: GLUE8: Arabidopsis sugar transporter protein expressed in the tapetum, paralog of SWEET1 (protein, UniProt Q8LFH5 1-239, looked up)
Bidirectional sugar …: MVDAKQVRFIIGVIGNVISFGLFAAPAKTFWRIFKKKSVEEFSYVPYVATVMNCMLWVFYGLPVVHKDSILVSTINGVGLVIELFYVGVYLMYCGHKKNHRRNILGFLALEVILVVAIILITLFALKGDFVKQTFVGVICDVFNIAMYGAPSLAIIKVVKTKSVEYMPFLLSLVCFVNAGIWTTYSLIFKIDYYVLASNGIGTFLALSQLIVYFMYYKSTPKEKTVKPSEVEISATERV
B2: GLUE13: Arabidopsis GLUE/SWEET sugar transporter protein (protein, UniProt Q9FGQ2 1-294, looked up)
Bidirectional sugar …: MALTNNLWAFVFGILGNIISFVVFLAPVPTFVRICKKKSTEGFQSLPYVSALFSAMLWIYYAMQKDGTAFLLITINAFGCVIETIYIVLFVSYANKKTRISTLKVLGLLNFLGFAAIVLVCELLTKGSTREKVLGGICVGFSVSVFAAPLSIMRVVVRTRSVEFMPFSLSLFLTISAVTWLFYGLAIKDFYVALPNVLGAFLGAVQMILYIIFKYYKTPVAQKTDKSKDVSDHSIDIAKLTTVIPGAVLDSAVHQPPALHNVPETKIQLTEVKSQNMTDPKDQINKDVQKQSQV
B3: GLUE4: Arabidopsis GLUE/SWEET sugar transporter protein (protein, UniProt Q944M5 1-251, looked up)
Bidirectional sugar …: MVNATVARNIAGICGNVISLFLFLSPIPTFITIYKKKKVEEYKADPYLATVLNCALWVFYGLPMVQPDSLLVITINGTGLAIELVYLAIFFFFSPTSRKVKVGLWLIGEMVFVGIVATCTLLLFHTHNQRSSFVGIFCVIFVSLMYIAPLTIMSKVIKTKSVKYMPFSLSLANFLNGVVWVIYALIKFDLFILIGNGLGTVSGAVQLILYACYYKTTPKDDEDEEDEENLSKVNSQLQLSGNSGQAKRVSA
B4: GLUE7: Arabidopsis GLUE/SWEET sugar transporter protein (protein, UniProt Q8LBF7 1-258, looked up)
Bidirectional sugar …: MVFAHLNLLRKIVGIIGNFIALCLFLSPTPTFVRIVKKKSVEEYSPIPYLATLINCLVWVLYGLPTVHPDSTLVITINGTGILIEIVFLTIFFVYCGRQKQRLIISAVIAAETAFIAILAVLVLTLQHTTEKRTMSVGIVCCVFNVMMYASPLSVMKMVIKTKSVEFMPFWLSVAGFLNAGVWTIYALMPFDPFMAIPNGIGCLFGLAQLILYGAYYKSTKRIMAERENQPGYVGLSSAIARTGSEKTANTNQEPNNV
B5: GLUE5: Arabidopsis GLUE/SWEET sugar transporter protein (protein, UniProt Q9FM10 1-240, looked up)
Bidirectional sugar …: MTDPHTARTIVGIVGNVISFGLFCAPIPTMVKIWKMKSVSEFKPDPYVATVLNCMMWTFYGLPFVQPDSLLVITINGTGLFMELVYVTIFFVFATSPVRRKITIAMVIEVIFMAVVIFCTMYFLHTTKQRSMLIGILCIVFNVIMYAAPLTVMKLVIKTKSVKYMPFFLSLANFMNGVVWVIYACLKFDPYILIPNGLGSLSGIIQLIIYITYYKTTNWNDDDEDKEKRYSNAGIELGQA
B6: GLUE14: Arabidopsis GLUE/SWEET sugar transporter protein (protein, UniProt Q9SW25 1-281, looked up)
Bidirectional sugar …: MVLTHNVLAVTFGVLGNIISFIVFLAPVPTFVRICKKKSIEGFESLPYVSALFSAMLWIYYALQKDGAGFLLITINAVGCFIETIYIILFITYANKKARISTLKVLGLLNFLGFAAIILVCELLTKGSNREKVLGGICVGFSVCVFAAPLSIMRVVIRTKSVEFMPFSLSLFLTISAITWLFYGLAIKDFYVALPNILGAFLGAVQMILYVIFKYYKTPLVVDETEKPKTVSDHSINMVKLSSTPASGDLTVQPQTNPDVSHPIKTHGGDLEDQMDKKMPN
B7: GLUE3: Arabidopsis GLUE/SWEET sugar transporter protein (protein, UniProt Q6NQN5 1-263, looked up)
Bidirectional sugar …: MGDKLRLSIGILGNGASLLLYTAPIVTFSRVFKKKSTEEFSCFPYVMTLFNCLIYTWYGLPIVSHLWENLPLVTINGVGILLESIFIFIYFYYASPKEKIKVGVTFVPVIVGFGLTTAISALVFDDHRHRKSFVGSVGLVASISMYGSPLVVMKKVIETRSVEYMPFYLSFFSFLASSLWLAYGLLSHDLFLASPNMVATPLGILQLILYFKYKNKKDLAPTTMVITKRNDHDDKNKATLEFVVDVDRNSDTNEKNSNNASSI
B8: GLUE17: Arabidopsis GLUE/SWEET sugar transporter protein (protein, UniProt Q84WN3 1-241, looked up)
Bidirectional sugar …: MAEASFYIGVIGNVISVLVFLSPVETFWKIVKRRSTEEYKSLPYICTLLGSSLWTYYGIVTPGEYLVSTVNGFGALVETIYVSLFLFYAPRHLKLKTVDVDAMLNVFFPIAAIVATRSAFEDEKMRSQSIGFISAGLNIIMYGSPLSAMKTVVTTKSVKYMPFWLSFFLFLNGAIWAVYALLQHDVFLLVPNGVGFVFGTMQLILYGIYRNAKPVGLSNGLSEIAQDEEEGLTSRVEPLLS
B9: GLUE16: Arabidopsis GLUE/SWEET sugar transporter protein (protein, UniProt Q9LUR4 1-230, looked up)
Bidirectional sugar …: MADLSFYVGVIGNVISVLVFLSPVETFWRIVQRRSTEEYECFPYICTLMSSSLWTYYGIVTPGEYLVSTVNGFGALAESIYVLIFLFFVPKSRFLKTVVVVLALNVCFPVIAIAGTRTLFGDANSRSSSMGFICATLNIIMYGSPLSAIKTVVTTRSVQFMPFWLSFFLFLNGAIWGVYALLLHDMFLLVPNGMGFFLGIMQLLIYAYYRNAEPIVEDEEGLIPNQPLLA

test system: HEK293T cells; assay: Glucose transport by GLUE/SWEET coexpressed with FRET glucose sensor (cytosolic or ER) in HEK293T cells; assay type: cell-based, human; settings: ER-targeted sensor FLIPglu600μΔ13V ER
Procedure: Individual cells were analyzed by quantitative ratio imaging of CFP and Venus emission (acquisition intervals 5 sec; Fc/D corresponds to the normalized emission intensity ratio). HEK293T/FLIPglu600μΔ13V cells were perfused with medium, followed by square pulses of increasing glucose concentrations. […] Cells coexpressing the sensor and SWEET1 accumulated glucose as evidenced by the negative FRET ratio change with an amplitude that correlates with the increasing external glucose supply (blue line). Data points are mean±SD (n>10).
The sensor FLIPglu600μΔ13V^ER was targeted to the lumen of the ER (analysis performed as under FIG. 9A, acquisition intervals 10 sec). […] Cells coexpressing the sensor and SWEET1 accumulated glucose in the ER as evidenced by the negative ratio change induced by perfusion with glucose. Data points are mean±SD (n>10).
By utilizing the above described HEK293T cell system, a novel class of Arabidopsis sugar transporters was identified that are involved in nectar production in plants and with all hallmarks of the glucose transport activity described in root tips. A screening assay was then initiated in which candidate transporter genes from Arabidopsis were coexpressed with the FRET glucose sensor in the HEK293T cell expression system.
FRET analysis. Cell culture, transfection, image acquisition and FRET analysis were performed as described previously.
To identify novel glucose transporters from the reference plant Arabidopsis, genes encoding uncharacterized polytopic membrane proteins from the plant membrane protein database Aramemnon, available on the internet at “aramemnon.botanik.uni-koeln.de”,—were screened using a mammalian expression system. Candidate genes were coexpressed with a high-sensitivity FRET glucose sensor (i.e. FLIPglu600μΔ13V) in human embryonic kidney HEK293T cells, which are characterized by low endogenous glucose uptake activity. […] To determine whether SWEET1 can also mediate efflux from the cytosol, we expressed the FRET glucose sensor FLIPglu600μΔ13V^ER in the lumen of the endoplasmic reticulum (ER; FIG. 9B). Topologically, uptake across the plasma membrane (PM) is initiated from the extracellular side of the carrier, while ‘export’ to the ER is initiated from the cytoplasmic side of the transporter (FIG. 9C). […] SWEET1 may thus function as a glucose uniporter, for which the direction of transport depends only on the glucose gradient across the membrane. […] Furthermore, the mRNAs levels of known human glucose transporters in the GLUT and SGLT families were not induced in HEK293T cells expressing SWEET1 (FIG. 12B). […] In support of a role in cellular uptake and efflux, a constitutively expressed SWEET1-YFP fusion localizes to the PM in Arabidopsis leaves (FIG. 9G). […] Other proteins, possibly related to SWEET1, may be involved in sugar transport in roots.

Row | Molecule | glucose efflux from cytosol into the ER
1 | B1 | ‘efflux’ glucose from the cytosol into the ER

same assay, conditions: cytosolic FRET glucose sensor

Row | Molecule | glucose accumulation in cytosol (negative FRET ratio change)
2 | GLUE12: Arabidopsis GLUE/SWEET sugar transporter protein | function as glucose transporters with different activities
3 | B2 | function as glucose transporters with different activities
4 | B1 | function as glucose transporters with different activities

same assay, conditions: cytosolic FRET glucose sensor, listed as SWEET8

Row | Molecule | glucose accumulation in cytosol (negative FRET ratio change)
5 | B1 | also functions as a uniporter

test system: yeast strain YSL2-1; assay: Complementation growth assay of yeast strain YSL2-1/EBY4000 lacking all 18 hexose transporter genes; assay type: cell-based; settings: 2% fructose
Procedure: Cells expressing yeast homolog, HXTS, or mammalian homolog, GLUT1, were used as controls. Os8N3 and RAG1AP1 were homologs from rice and mammalian. The yeast cells were grown in SD-Ura liquid medium with 2% maltose to early log phase and 5 m of serious dilutions were spotted on the media containing YPM or SD-URA containing 2% of maltose, fructose, or mannose. […]
Cells expressing yeast homolog, HXT5, or mammalian homolog, GLUT1, were used as controls. Os8N3 and RAG1AP1 were homologs from rice and mammalian. The yeast cells were grown in SD-Ura liquid medium with 2% maltose to early log phase and 5 m of serious dilutions were spotted on the media containing YPM or SD-URA containing 2% glucose.
Cells expressing yeast homolog, HXT5, or mammalian homolog, GLUT1, were used as controls. Os8N3 and RAG1AP1 were homologs from rice and mammalian. The yeast cells were grown in SD-Ura liquid medium with 2% maltose to early log phase and 5 m of serious dilutions were spotted on the media containing YPM or SD-URA containing various 2-Deoxy-glucose levels.
A modified version of the yeast strain EBY4000 (hxt1 through −17Δ::loxP gal2Δ::loxP stl1Δ::loxP agt1Δ::loxP ydl247wΔ::loxP yjr160cΔ::loxP) carrying a cytosolic invertase (YSL2-1) was transformed with SWEETs and HXTS and grown on SD (synthetic deficient) medium supplemented with 2% maltose and required auxotrophic markers. For complementation growth assays, cells were grown overnight in liquid minimum medium to OD600˜0.6 and then diluted to OD600˜0.2 using water. Serial dilutions (1×, 5×, 25×, and 125×) were plated on SD media containing either 2% maltose (as control) or 2% glucose and the relevant auxotrophic markers. Growth was documented by scanning (CanoScan, Canon) the plates after 2-5 days at 30° C.

Row | Molecule | complementation on fructose
6 | B3 | transport fructose
7 | B4 | transport fructose

same assay, conditions: 2% glucose

Row | Molecule | complementation of yeast hexose transport mutant on glucose
8 | B3 | transport glucose
9 | B5 | transport glucose
10 | B1 | transport glucose
11 | B4 | transport glucose

same assay, conditions: 2% glucose; listed as SWEET8/RPG1

Row | Molecule | complementation of yeast hexose transport mutant on glucose
12 | B1 | complements the yeast glucose transport mutant

same assay, conditions: 2% mannose

Row | Molecule | complementation on mannose
13 | B3 | transport fructose and mannose
14 | B5 | transport mannose
15 | B1 | transport mannose
16 | B4 | transport fructose and mannose

same assay, conditions: various 2-Deoxy-glucose levels

Row | Molecule | sensitivity to 2-deoxyglucose
17 | B3 | transport 2-deoxyglucose
18 | B5 | transport 2-deoxyglucose
19 | B6 | transport 2-deoxyglucose
20 | B1 | transport 2-deoxyglucose
21 | B7 | transport 2-deoxyglucose
22 | B8 | transport 2-deoxyglucose
23 | B9 | transport 2-deoxyglucose
24 | B4 | transport 2-deoxyglucose
